Some targets named below: bococizumab variant PELW; bococizumab variant PFGQ; bococizumab; bococizumab variant SEGQ; bococizumab variant PENW; bococizumab variant PEGQ; bococizumab variant AEGQ; bococizumab variant AEPA; bococizumab variant PERQ; bococizumab variant SELW; bococizumab variant EDGM.
Common to all, as to test: SPR; Biacore 8K+; anti-human IgG (Fc) amine-coupled to CM5 captures the antibody (10-25 RU); PCSK9 50 nM to 12 pM flowed over, 240 s association, 1800 s dissociation; Langmuir 1:1 global fit; duplicates
(In general: SPR reads the build-up and loss of mass on a sensor chip optically.)

Data on one substance can be found in PMC10203562.

As for “proprotein convertase substilisin/kexin type 9 (PCSK9) (from UniProt Q8NBP7 153-692) (natural protein)”, the Kd (as a rule, the free concentration of one partner at which half of the binding sites on the other are occupied at equilibrium, for simple one-to-one binding) amounted to 0.19 nM with bococizumab variant PELW; 0.25 nM in the assay with bococizumab variant PFGQ; 0.25 nM with bococizumab; 0.35 nM with bococizumab variant SEGQ; 0.24 nM in the assay with bococizumab variant PENW; 0.2 nM with bococizumab variant PEGQ. The Kd in the assay with bococizumab variant AEGQ worked out at 0.19 nM; with bococizumab variant AEPA, 0.21 nM; with bococizumab variant PERQ, 0.25 nM; with bococizumab variant SELW, 0.27 nM; with bococizumab variant EDGM it was 0.66 nM.
